For data set [1], the system named is HSCs. In words: IL-11 expression and secretion by HSCs (RNA-seq, ELISA). The conditions noted are these: for IL-11 secretion from HSCs: ELISA. It is filed as cell-based, human. From the text: TGFβ1 stimulation of human hepatic stellate cells and antibody treatment in HFMCD: Sequenced libraries were demultiplexed using bcl2fastq v2.19.0.316 with the-no-lane-splitting option. Adapter sequences were then trimmed using trimmomatic^6 v0.36 in paired end mode with the options MAXINFO:35:0.5 MINLEN:35. Trimmed reads were aligned to the Homo sapiens GRCh38 using STAR′ v. 2.2.1 with the options—outFilterType BySJout-outFilterMultimapNmax 20-alignSJoverhangMin 8-alignSJDBoverhangMin 1-outFilterMismatchNmax 999-alignIntronMin 20-alignIntronMax 1000000-alignMatesGapMax 1000000 in paired end, single pass mode. Only unique alignments were retained for counting. Counts were calculated at the gene level using the FeatureCounts module from subread^8v. 1.5.1, with the options -O-s 2-J-T 8-p-R-G. The Ensembl release 86 hg38 GTF was used as annotation to prepare STAR indexes and for FeatureCounts.
The levels of IL-11 and MMP-2 in equal volumes of cell culture media were quantified using Human IL-11 Quantikine ELISA kit (D1100, R&D Systems) and Total MMP-2 Quantikine ELISA kit (MMP200, R&D Systems), respectively. Total secreted collagen in the cell culture supernatant was quantified using Sirius red collagen detection kit (9062, Chondrex). Total hydroxyproline content in the livers was measured using Quickzyme Total Collagen assay kit (Quickzyme Biosciences). Mouse serum levels of alanine aminotransferease (ALT), cholesterol, and triglycerides were measured using Alanine Transaminase Activity Assay Kit (ab105134, abcam), Cholesterol Assay Kit (ab65390, abcam), and Triglyceride Assay Kit (ab65336, abcam), respectively. Liver Triglycerides (TG) measurements were performed using triglyceride colorimetric assay kit (Ser. No. 10/010,303, Cayman). All ELISA and colorimetric assays were performed according to the manufacturer's protocol.

For data set [2], the system named is primary human hepatocytes. In words: Stimulation of primary human hepatocytes with IL11, hyperIL11, hyperIL6. It is filed as cell-based. The conditions noted are these: for ERK and JNK (non-canonical signaling) activation: 2.5 ng/ml to 20 ng/ml. The protocol:
Human hepatocytes (5200, ScienCell) were grown and maintained in hepatocyte media (5201, ScienCell) supplemented with 2% fetal bovine serum (FBS) and 1% Penicillin-streptomycin.
Primary human hepatocytes (5200, ScienCell) were maintained in hepatocyte medium ([…], ScienCell) supplemented with 2% fetal bovine serum, 1% Penicillin-streptomycin at 37° C. and 5% CO2. Hepatocytes (P2-P3) were serum-starved overnight unless otherwise specified in the methods prior to 24 hours stimulation with different doses of various recombinant proteins as described.
For surface IL11RA, IL6R, and gp130 analysis, primary human hepatocytes and THP-1 cells were stained with IL11RA, IL6R, or gp130 antibody and the corresponding Alexa Fluor 488 secondary antibody. Cell death analysis was performed by staining primary human hepatocytes with Dead Cell Apoptosis Kit with Annexin V FITC and PI (V13242, Thermo Fisher). PI+ve cells were then quantified with the flow cytometer (Fortessa, BD Biosciences) and analyzed with FlowJo version X software (TreeStar).
Alanine Aminotransferase (ALT) activity in the cell culture supernatant and mouse serum was measured using ALT Activity Assay Kit (ab105134, Abcam). Liver Glutathione (GSH) levels were measured using Glutathione Colorimetric Detection Kit (EIAGSHC, Thermo Fisher). Total hydroxyproline content in mouse livers was measured using Quickzyme Total Collagen assay kit (QZBtotco15, Quickzyme Biosciences). The levels of serum and liver triglycerides were measured using Triglyceride Assay Kit (ab65336, Abcam). Mouse serum levels of Aspartate Aminotransferase (AST) and cholesterol were measured using AST Assay Kit (ab105135, Abcam) and Cholesterol Assay Kit (ab65390; Abcam), respectively. All colorimetric assays were performed according to the manufacturer's protocol.
(§1) Western blots were carried out on total protein extracts from hepatocytes and liver tissues. Hepatocyte and liver tissue lysates were homogenized in RIPA Lysis and Extraction Buffer (89901, Thermo Scientific) containing protease and phosphatase inhibitors (Roche). Protein lysates were separated by SDS-PAGE and transferred to PVDF membranes. Protein bands were visualized using the ECL detection system (Pierce) with the appropriate secondary antibodies: anti-rabbit HRP or anti-mouse HRP.

In data set [3] the test system is primary human hepatocytes. Description: Palmitate loading (lipotoxicity) of primary human hepatocytes. It is filed as cell-based. The conditions noted are these: palmitate:BSA 6:1. The protocol: Palmitate:BSA conjugated solution in the ratio of 6:1 was prepared as described earlier (Alsabeeh et al., 2018). Palmitate (0.5 mM) conjugated in fatty acids free BSA was used to treated cells as described in figure legends; 0.5% BSA solution was used as control. […]
Primary human hepatocytes were seeded on 8-well chamber slides (1×10^4 cells/well). For this experiment, cells were not serum-starved prior to palmitate treatment. 24 hours following palmitate stimulation, cells were washed, incubated with 25 μM of DCFDA solution (ab113851, Abcam) for 45 minutes at 37° C. in the dark, and rinsed with dilution buffer according to the manufacturer's protocol. Live cells with positive DCF staining were imaged with filter set appropriate for fluorescein (FITC) using a fluorescence microscope (Leica). […]
as §1

The test system of data set [4] is wild-type C57BL/6J and Col1a1-GFP reporter mice. Description: Daily subcutaneous injection of recombinant mouse IL-11. It is filed as in vivo. The protocol:
Recombinant mouse IL-11 (rmIL11) was reconstituted to a concentration of 50 μg ml^−1 in saline. Ten-week-old male wild-type C57BL/6J mice received daily subcutaneous injection of either 100 μg kg^−1 of rmIL11 in saline (n=19) or an identical volume of saline (n=15) for 21 days.
Ten week old male Col1a1-GFP reporter mice 19 and wild-type C57BL/6J mice received daily subcutaneous injection of either 100 μg/kg of recombinant mouse Il-11 (rmIl-11) or identical volume of saline for 21 days.

Entries after “also recorded” stand apart in the source; their conditions may differ.

“TGFβ1: human TGFβ1 recombinant protein, pro-fibrotic stimulus [reference compound]”: in data set [1] (TGFβ1 5 ng/ml, 24 h), the “IL-11 upregulation in HSCs (RNA-seq)” value was 14.9 fold. For the same molecule, the “IL-11 secretion from hepatocytes” value in data set [2] (TGFβ1 5 ng/ml, 24 h) is listed as “robustly secreted IL-11”.

As to `CCCCCCCCCCCCCCCC(=O)O` [palmitate, Palmitate, reference compound], the “IL11 secretion, FC vs control” value in data set [3] was 28.

In the case of “hyperIL6: IL6R:IL6 fusion protein, synthetic IL6 trans-signaling construct (R&D systems) [reference compound]”, the “ERK and JNK (non-canonical signaling) activation” value in data set [2] (24 h) is given as “did not activate”. Further, the “ALT in the media, fold change (FC)” value in data set [2] (20 ng/ml) is 0.9. For the same molecule, in data set [2] (dose range, 24 h), the STAT3 activation result is on record as “dose-dependently induced STAT3 activation”.

Consider PDGF, for which the “IL-11 secretion from HSCs” value in data set [1] is reported as “induce IL-11 secretion”.

As for “bFGF: human bFGF recombinant protein, NASH stimulus”, in data set [1], the “IL-11 secretion from HSCs” value is given as “induce IL-11 secretion”.

Regarding “CCL2: human CCL2 recombinant protein, NASH stimulus”, in data set [1], the “IL-11 secretion from HSCs” value was “induce IL-11 secretion”.

Turning to “angiotensin II: human angiotensin (Sigma-Aldrich), NASH stimulus (DRVYIHPF; Angiotensin-2; UniProt P01019 25-32, looked up)”, in data set [1], the “IL-11 secretion from HSCs” value is “induce IL-11 secretion”.

B1: hyperIL11: IL11RA:IL11 fusion protein mimicking the trans-signalling complex, SEQ ID NO:21 (protein)
chain: MSSSCSGLSRVLVAVATALVSASSPCPQAWGPPGVQYGQPGRSVKLCCPGVTAGDPVSWFRDGEPKLLQGPDSGLGHELVLAQADSTDEGTYICQTLDGALGGTVTLQLGYPPARPVVSCQAADYENFSCTWSPSQISGLPTRYLTSYRKKTVLGADSQRRSPSTGPWPCPQDPLGAARCVVHGAEFWSQYRINVTEVNPLGASTRLLDVSLQSILRPDPPQGLRVESVPGYPRRLRASWTYPASWPCQPHFLLKFRLQYRPAQHPAWSTVEPAGLEEVITDAVAGLPHAVRVSARDFLDAGTWSTWSPEAWGTPSTGPAGQSGGGGGSGGGSGGGSVPGPPPGPPRVSPDPRAELDSTVLLTRSLLADTRQLAAQLRDKFPADGDHNLDSLPTLAMSAGALGALQLPGVLTRLRADLLSYLRHVQWLRRAGGSSLKTLEPELGTLQARLDRLLRRLQLLMSRLALPQPPPDPPAPPLAPPSSAWGGIRAAHAILGGLHLTLDWAVRGLLLLKTRL
modifications: Hyper IL-11 (IL-11RAIL-11 fusion)
For the molecule B1, in data set [1], the “IL-11 secretion from HSCs” value is “secreted IL-11”. In addition, the “ERK and JNK (non-canonical signaling) activation” value in data set [2] (24 h) is “activated ERK and JNK in a dose-dependent manner”. In data set [2] (dose range, 24 h), the “alanine transaminase (ALT) in the media” value was “dose-dependent increase”.

B2: rmIL11: Recombinant mouse IL-11 (UniProtKB: P47873) (protein)
chain: PGPPAGSPRVSSDPRADLDSAVLLTRSLLADTRQLAAQMRDKFPADGDHSLDSLPTLAMSAGTLGSLQLPGVLTRLRVDLMSYLRHVQWLRRAGGPSLKTLEPELGALQARLERLLRRLQLLMSRLALPQAAPDQPVIPLGPPASAWGSIRAAHAILGGLHLTLDWAVRGLLLLKTRL
Turning to B2, in data set [4] (100 μg/kg daily s.c., 21 days), the “expression of key pro-fibrotic and pro-inflammatory genes” value is on record as “increased”; the hepatic collagen content result is “increased”; the “serum alanine aminotransferase (ALT)” value is “increased”. Further, the weight gain entry in data set [4] (100 μg/kg daily s.c., 21 days, vs saline) was “slowed normal mouse weight gain progression; also recorded: gained less weight”. Besides, the “Col1a1+ve myofibroblasts in the liver” value in data set [4] (Col1a1-GFP reporter mice) is reported as “accumulated GFP-expressing Col1a1^+ve myofibroblasts in the liver”.

B3: sIL11RA: soluble IL11RA, human IL11RA (R&D systems), to potentiate putative trans-signaling (protein, UniProt Q14626 24-370, looked up)
extracellular domain: SPCPQAWGPPGVQYGQPGRSVKLCCPGVTAGDPVSWFRDGEPKLLQGPDSGLGHELVLAQADSTDEGTYICQTLDGALGGTVTLQLGYPPARPVVSCQAADYENFSCTWSPSQISGLPTRYLTSYRKKTVLGADSQRRSPSTGPWPCPQDPLGAARCVVHGAEFWSQYRINVTEVNPLGASTRLLDVSLQSILRPDPPQGLRVESVPGYPRRLRASWTYPASWPCQPHFLLKFRLQYRPAQHPAWSTVEPAGLEEVITDAVAGLPHAVRVSARDFLDAGTWSTWSPEAWGTPSTGTIPKEIPAWGQLHTQPEVEPQVDSPAPPRPSLQPHPRLLDHRDSVEQVAVLA
modifications: extracellular domain
Turning to B3, the “IL11-induced hepatocyte death and signaling” value in data set [2] (IL11 20 ng/ml, sgp130 or sIL11RA 1 μg/ml) was “unaffected”. In addition, in data set [2] (increasing doses of sgp130 or sIL11RA), the “ALT release from IL11-stimulated hepatocytes” value is “no effect”. Also, the “IL11 dose-dependent hepatocyte cell death on addition of decoy” value in data set [2] (sgp130 or sIL11RA 1 μg/ml) is recorded as “unaffected”.

These data come from patent US11813311B2, “Treatment and prevention of metabolic diseases” (Singapore Health Services PTE LTD., priority 2019, dated 2023).
